According to US20040176285A1, “Tip39 polypeptides” (priority 2001, published 2004):
Entries after “also recorded” stand apart in the source; their conditions may differ. Where a SMILES comes first, the peptide text is derived from it. Where no end group is shown, it is not given here.

Tests used:
[1] = target: T1, human PTH2 receptor (Homo sapiens, UniProt P49190); assay: Inhibition of agonist-stimulated cAMP accumulation in hPR2-20 LLCPK1 cells; assay type: cell-based
T1 construct: expressed in transfected cells
T1 sequence (P49190 25-550): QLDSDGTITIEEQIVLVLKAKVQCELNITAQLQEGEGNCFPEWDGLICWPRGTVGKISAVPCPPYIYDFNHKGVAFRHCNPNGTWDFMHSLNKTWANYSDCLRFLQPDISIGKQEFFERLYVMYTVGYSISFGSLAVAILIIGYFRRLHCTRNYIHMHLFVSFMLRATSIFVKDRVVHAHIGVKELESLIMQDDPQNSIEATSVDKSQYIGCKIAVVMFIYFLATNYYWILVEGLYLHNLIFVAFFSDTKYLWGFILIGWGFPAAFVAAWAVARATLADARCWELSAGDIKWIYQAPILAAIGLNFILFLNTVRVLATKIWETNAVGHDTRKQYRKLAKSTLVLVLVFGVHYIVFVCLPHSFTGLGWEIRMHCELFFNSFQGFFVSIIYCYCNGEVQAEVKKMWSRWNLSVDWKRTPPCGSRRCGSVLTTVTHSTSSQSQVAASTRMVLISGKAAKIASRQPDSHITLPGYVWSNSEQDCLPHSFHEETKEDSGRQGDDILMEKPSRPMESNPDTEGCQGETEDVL
Source text: FIG. 8. […] Data are expressed as % of half-maximal cAMP accumulation and represent the results (mean±SE) of at least three independent experiments.

[2] = target: T2, PTH1R (Homo sapiens, UniProt Q03431); assay: Ligand-stimulated cAMP accumulation in HKrk-B7 cells; assay type: cell-based; set-up: expressed in transfected cells; details: HKrk-B7 cells
T2 sequence (Q03431 27-593): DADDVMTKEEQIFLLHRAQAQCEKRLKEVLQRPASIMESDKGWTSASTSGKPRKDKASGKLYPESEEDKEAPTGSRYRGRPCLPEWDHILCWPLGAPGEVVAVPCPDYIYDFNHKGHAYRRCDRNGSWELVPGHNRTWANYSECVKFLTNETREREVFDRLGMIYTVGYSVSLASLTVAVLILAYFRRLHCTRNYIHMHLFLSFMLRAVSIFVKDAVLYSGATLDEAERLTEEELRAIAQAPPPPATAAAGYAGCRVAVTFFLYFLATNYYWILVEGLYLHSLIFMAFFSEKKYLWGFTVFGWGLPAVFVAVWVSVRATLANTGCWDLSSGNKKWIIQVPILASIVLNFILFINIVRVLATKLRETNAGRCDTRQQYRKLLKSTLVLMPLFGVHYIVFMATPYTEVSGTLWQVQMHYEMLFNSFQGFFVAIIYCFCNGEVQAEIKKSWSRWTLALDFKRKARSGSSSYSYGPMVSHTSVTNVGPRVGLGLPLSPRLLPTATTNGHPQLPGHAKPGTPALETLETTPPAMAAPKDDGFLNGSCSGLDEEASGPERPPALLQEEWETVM
Description: DMEM, Trypsin/EDTA, and penicillin G/streptomycin and horse serum were from Gibco/BRL, Life Technologies, Gaithersburg, Md. LLC-PK, expressing the recombinant human PTH1R (HKrk-B7 cells) and SaOS-2 cells expressing the wild-type PTH1R endogenously were cultured in DMEM supplemented with 10% heat-inactivated fetal bovine serum, 100 U/ml penicillin, 100 μg/ml streptomycin, as previously described (Gardella, T. J., et al., J. Biol. Chem. 271:19888-19893 (1996); Fukayama, S., et al., Endocrinology 134:1851-1858 (1994)); both cell lines were maintained in a humidified atmosphere containing 95% air and 5% CO2. After seeding, medium was replaced daily, until cells were used for radioligand binding or cAMP accumulation assays.
Na^125I (specific activity: 2,000 Ci/mmol) was purchased from DuPont/NEN, Boston, Mass. Fetal bovine serum, 3-isobutyl-1-methyl-xanthine (IBMX), and BSA were from Sigma, St. Louis, Mo., and trifluoroacetic acid (TFA) was from Pierce, Rockford, Ill. Radiolabeled rPTH(1-34) and PTHrP(1-36) were prepared by the chloramine-T method, followed by HPLC purification using a 30-50% ACN/0.1% TFA gradient over 30 minutes; radioreceptor assays were performed in 24-well plates as previously described (Gardella, T. J., et al., J. Biol. Chem. 271:19888-19893 (1996); Fukayama, S. et al., Endocrinology 134:1851-1858 (1994)). In brief, each well (final volume 500 μl) contained binding buffer (BB; 50 mM Tris-HCl (pH 7.7), 100 mM NaCl, 5 mM KCl, 2 mM CaCl2, 5% heat-inactivated horse serum, and 0.5% heat-inactivated fetal bovine serum), the ^125I-labeled PTH or PTHrP analog (100,000 to 200,000 cpm) was incubated in the absence or presence of increasing concentrations of unlabeled peptides. After 4 h at 16° C., buffer was completely removed, the cells were rinsed with cold BB and lysed with 1 M NaOH. The entire lysate was counted for γ-irradiation. Specific binding was determined after subtracting radioactivity bound in the presence of maximal concentrations of unlabeled competing peptide (10^−6 M). Agonist-dependent stimulation of cAMP accumulation by HKrk-B7 and SaOS-2 cells (48-well plates; stimulation at room temperature for 45 minutes) and the subsequent measurement of cAMP by radioimmunoassay was performed as previously described (Gardella, T. J., et al., J. Biol. Chem. 271:19888-19893 (1996); Bergwitz, C., et al., Endocrinology 139:723-732 (1998)). Data were analyzed and graphically illustrated using the graph-pad prism software package.
The values for EC50 and Vmax (mean±SE) are derived from at least three independent experiments.

[3] = target: T2, PTH1R; assay: Inhibition of agonist-stimulated cAMP accumulation in SaOS-2 cells; assay type: cell-based; set-up: expressed in transfected cells; details: SaOS-2 cells (stated for both cell lines); agonists 0.15-0.3 nM
Source text: FIG. 4A-4F. Inhibition of agonist-stimulated cAMP accumulation in HKrk-B7 cells (FIG. 4A-4C) or SaOS-2 cells (FIG. 4D-4F). […] Data are expressed as % of half-maximal cAMP accumulation and represent the results (mean±SE) of at least three independent experiments.
Na^125I (specific activity: 2,000 Ci/mmol) was purchased from DuPont/NEN, Boston, Mass. Fetal bovine serum, 3-isobutyl-1-methyl-xanthine (IBMX), and BSA were from Sigma, St. Louis, Mo., and trifluoroacetic acid (TFA) was from Pierce, Rockford, Ill. Radiolabeled rPTH(1-34) and PTHrP(1-36) were prepared by the chloramine-T method, followed by HPLC purification using a 30-50% ACN/0.1% TFA gradient over 30 minutes; radioreceptor assays were performed in 24-well plates as previously described (Gardella, T. J., et al., J. Biol. Chem. 271:19888-19893 (1996); Fukayama, S. et al., Endocrinology 134:1851-1858 (1994)). […] The entire lysate was counted for γ-irradiation. Specific binding was determined after subtracting radioactivity bound in the presence of maximal concentrations of unlabeled competing peptide (10^−6 M). […] Data were analyzed and graphically illustrated using the graph-pad prism software package.

[4] = target: T1, human PTH2 receptor; assay: Ligand-stimulated cAMP accumulation in hPR2-20 LLCPK1 cells; assay type: cell-based
[5] = target: T3, human PTH/PTHrP receptor (PTH1R) (human, UniProt Q03431 27-593); assay: radioreceptor competition on HKrk-B7 cells, 125I-rPTH(1-34) or 125I-PTHrP(1-36)
T3 construct: whole, on cells; HKrk-B7 cells about 10^6 receptors/cell; SaOS-2 about 30,000 receptors/cell; also called hPTH-1 receptor; PTH-1 receptor
T3 sequence (looked up): T2 sequence (Q03431 27-593)
Description: (§1) Na¹²⁵I (specific activity: 2,000 Ci/mmol) was purchased from DuPont/NEN, Boston, Mass. Fetal bovine serum, 3-isobutyl-1-methyl-xanthine (IBMX), and BSA were from Sigma, St. Louis, Mo., and trifluoroacetic acid (TFA) was from Pierce, Rockford, Ill. […] After 4 h at 16° C., buffer was completely removed, the cells were rinsed with cold BB and lysed with 1 M NaOH. The entire lysate was counted for γ-irradiation. Specific binding was determined after subtracting radioactivity bound in the presence of maximal concentrations of unlabeled competing peptide (10⁻⁶ M). Agonist-dependent stimulation of cAMP accumulation by HKrk-B7 and SaOS-2 cells (48-well plates; stimulation at room temperature for 45 minutes) and the subsequent measurement of cAMP by radioimmunoassay was performed as previously described (Gardella, T. J., et al., J. Biol. Chem. 271:19888-19893 (1996); Bergwitz, C., et al., Endocrinology 139:723-732 (1998)). Data were analyzed and graphically illustrated using the graph-pad prism software package.

[6] = target: T3, human PTH/PTHrP receptor (PTH1R); assay: radioreceptor competition on HKrk-B7 cells; tracer 125I-rat [Nle8,21,Tyr34]PTH(1-34)amide
Description: as §1

[7] = target: T3, human PTH/PTHrP receptor (PTH1R); assay: radioreceptor competition on HKrk-B7 cells; tracer 125I-[Tyr36]PTHrP(1-36)amide
Description: as §1

[8] = target: T3, human PTH/PTHrP receptor (PTH1R); assay: radioreceptor competition on HKrk-B7 cells
Description: (§2) Specific binding was determined after subtracting radioactivity bound in the presence of maximal concentrations of unlabeled competing peptide (10⁻⁶ M). Agonist-dependent stimulation of cAMP accumulation by HKrk-B7 and SaOS-2 cells (48-well plates; stimulation at room temperature for 45 minutes) and the subsequent measurement of cAMP by radioimmunoassay was performed as previously described (Gardella, T. J., et al., J. Biol. Chem. 271:19888-19893 (1996); Bergwitz, C., et al., Endocrinology 139:723-732 (1998)). Data were analyzed and graphically illustrated using the graph-pad prism software package.

[9] = target: T3, human PTH/PTHrP receptor (PTH1R); assay: radioreceptor competition on HKrk-B7 cells; either tracer
Description: as §2

Molecule: CSCC[C@H](NC(=O)[C@H](Cc1ccc(O)cc1)NC(=O)[C@H](CO)NC(=O)[C@H](CC(N)=O)NC(=O)[C@H](CC(C)C)NC(=O)[C@H](Cc1c[nH]c2ccccc12)NC(=O)[C@H](Cc1c[nH]cn1)NC(=O)[C@H](CCCNC(=N)N)NC(=O)[C@H](CCCNC(=N)N)NC(=O)[C@H](CCC(=O)O)NC(=O)[C@H](CC(C)C)NC(=O)[C@H](C)NC(=O)[C@H](C)NC(=O)[C@H](CC(C)C)NC(=O)[C@H](CC(C)C)NC(=O)[C@H](CCCNC(=N)N)NC(=O)[C@H](C)NC(=O)[C@H](CCCNC(=N)N)NC(=O)[C@H](CCC(=O)O)NC(=O)[C@H](CCCNC(=N)N)NC(=O)[C@H](Cc1ccccc1)NC(=O)[C@H](C)N)C(=O)N[C@@H](Cc1c[nH]cn1)C(=O)N[C@@H](CCCCN)C(=O)N[C@@H](CC(C)C)C(=O)N[C@@H](CC(C)C)C(=O)N[C@H](C(=O)N[C@@H](CC(C)C)C(=O)N[C@@H](CC(=O)O)C(=O)N[C@@H](C)C(=O)N1CCC[C@H]1C(N)=O)C(C)C [TIP(9-39)] (H-AFRERARLLAALERRHWLNSYMHKLLVLDAP-NH2)
- higher antagonist concentration required against human TIP39 than against PTH-(1-34) ([1]; 1 nM of either agonist): approximately 14 fold
- antagonism at the PTH2 receptor (in words) ([1]; P2R LLCPK1 cells, FIG. 8): antagonist of the PTH2 receptor
- stimulation of cAMP accumulation at the PTH1R (in words) [2]: lack of second messenger formation; also recorded: failed to stimulate cAMP accumulation
- inhibition of agonist actions (in words) [3]: inhibited the actions of the three agonists

Molecule: CSCC[C@H](NC(=O)[C@H](Cc1ccc(O)cc1)NC(=O)[C@H](CO)NC(=O)[C@H](CC(=O)O)NC(=O)[C@H](CC(C)C)NC(=O)[C@H](Cc1c[nH]c2ccccc12)NC(=O)[C@H](CCC(=O)O)NC(=O)[C@H](CCCNC(=N)N)NC(=O)[C@H](CCCNC(=N)N)NC(=O)[C@H](CCC(=O)O)NC(=O)[C@H](CC(C)C)NC(=O)[C@H](C)NC(=O)[C@H](C)NC(=O)[C@H](CC(C)C)NC(=O)[C@H](CC(C)C)NC(=O)[C@H](CCCNC(=N)N)NC(=O)[C@H](C)NC(=O)[C@H](CCCNC(=N)N)NC(=O)[C@H](CCC(=O)O)NC(=O)[C@H](CCCNC(=N)N)NC(=O)[C@H](Cc1ccccc1)NC(=O)[C@H](C)NC(=O)[C@H](C)NC(=O)[C@H](CC(=O)O)NC(=O)[C@H](CC(=O)O)NC(=O)[C@H](C)NC(=O)[C@H](CC(C)C)NC(=O)[C@H](C)NC(=O)[C@H](CC(C)C)NC(=O)[C@@H](N)CO)C(=O)N[C@@H](CCC(N)=O)C(=O)N[C@@H](CCCCN)C(=O)N[C@@H](CC(C)C)C(=O)N[C@@H](CC(C)C)C(=O)N[C@@H](CC(C)C)C(=O)N[C@@H](CC(C)C)C(=O)N[C@@H](CC(=O)O)C(=O)N[C@@H](C)C(=O)N1CCC[C@H]1C(N)=O [mouse TIP39] (H-SLALADDAAFRERARLLAALERREWLDSYMQKLLLLDAP-NH2)
- maximum cAMP accumulation [4]: 133.7±3.9 pmol/well

Molecule: RHWLNSYMHKLLVLDAP [TIP(23-39)]
- binding result [5]: no binding

Molecule: ALERRHWLNSYMHKLLVLDAP [TIP(19-39)]
- binding result [5]: no binding

Molecule: ALADDAAFRERARLLAALERRHWLNSYMHKLLVLDAP (not fully specified (C-terminus)) [TIP(3-39)]
- IC50 [6]: 96 nM
- IC50 [7]: 68 nM
- fold higher apparent binding affinity in comparison to the parent peptide TIP(1-39) [8]: ~3 fold
- fold improvement in apparent binding affinity relative to TIP(1-39) [9]: ≤ 6 fold
